The supplement of paper PMC10219994
± gives the standard deviation of the averaged measurements.

B1: library; a variant is named by its letters at N, in order (parent)
chain: GAGACCGCAACTGAAAAGTTGTGGNNNNNATAGTGAGTCGCTGCCTGCAAAGACACAACT

Variants of: B1
Assay: ligation selection enrichment (abundance after / before one-round selection) (fold); higher = more template-directed ligation activity
Conditions: with T7Psub CACGGAUGCUAAUACGACUCACUAUA; MgCl2 25 mM; 42 °C; 4 h; pH 8.5
Summary of the method: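 RNA ligase library with five randomized core positions (0.75 μM, T7-transcribed) was reacted with RNA substrate (6 μM) in 50 mM EPPS pH 8.5, 25 mM MgCl2 at 42 °C for 4 h, in two independent experiments. Ligated products were PAGE-purified, reverse transcribed, barcoded by PCR and MiSeq-sequenced. Reads with quality score ≥30 at all randomized positions were counted. Enrichment was abundance after ligation divided by abundance before ligation.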

Point of comparison: GAGACCGCAACTGAAAAGTTGTGGCGAGTATAGTGAGTCGCTGCCTGCAAAGACACAACT [CGAGT], ligation selection enrichment 1.09 ± 0.25. Against it:
- GAGACCGCAACTGAAAAGTTGTGGCGACGATAGTGAGTCGCTGCCTGCAAAGACACAACT [CGACG] — lower, 0.671 ± 0.15
- GAGACCGCAACTGAAAAGTTGTGGAGACGATAGTGAGTCGCTGCCTGCAAAGACACAACT [AGACG] — lower, 0.532 ± 0.039
- GAGACCGCAACTGAAAAGTTGTGGTGACGATAGTGAGTCGCTGCCTGCAAAGACACAACT [TGACG] — lower, 0.49 ± 0.13
- GAGACCGCAACTGAAAAGTTGTGGCGACTATAGTGAGTCGCTGCCTGCAAAGACACAACT [CGACT] — the same, 1.09 ± 0.25
- GAGACCGCAACTGAAAAGTTGTGGAGACTATAGTGAGTCGCTGCCTGCAAAGACACAACT [AGACT] — within error, 0.736 ± 0.21
- GAGACCGCAACTGAAAAGTTGTGGGGACTATAGTGAGTCGCTGCCTGCAAAGACACAACT [GGACT] — within error, 0.703 ± 0.31
- GAGACCGCAACTGAAAAGTTGTGGTGACTATAGTGAGTCGCTGCCTGCAAAGACACAACT [TGACT] — within error, 0.683 ± 0.3
- GAGACCGCAACTGAAAAGTTGTGGTGAGAATAGTGAGTCGCTGCCTGCAAAGACACAACT [TGAGA] — lower, 0.376 ± 0.039
- GAGACCGCAACTGAAAAGTTGTGGCGAGAATAGTGAGTCGCTGCCTGCAAAGACACAACT [CGAGA] — lower, 0.348 ± 0.084
- GAGACCGCAACTGAAAAGTTGTGGAGAGAATAGTGAGTCGCTGCCTGCAAAGACACAACT [AGAGA] — lower, 0.338 ± 0.038
- GAGACCGCAACTGAAAAGTTGTGGGGAGAATAGTGAGTCGCTGCCTGCAAAGACACAACT [GGAGA] — lower, 0.285 ± 0.02
- GAGACCGCAACTGAAAAGTTGTGGCGAGCATAGTGAGTCGCTGCCTGCAAAGACACAACT [CGAGC] — lower, 0.246 ± 0.036
- GAGACCGCAACTGAAAAGTTGTGGAGAGCATAGTGAGTCGCTGCCTGCAAAGACACAACT [AGAGC] — lower, 0.196 ± 0.028
- GAGACCGCAACTGAAAAGTTGTGGTGAGCATAGTGAGTCGCTGCCTGCAAAGACACAACT [TGAGC] — lower, 0.156 ± 0.035
- GAGACCGCAACTGAAAAGTTGTGGGGAGCATAGTGAGTCGCTGCCTGCAAAGACACAACT [GGAGC] — lower, 0.135 ± 0.022
- GAGACCGCAACTGAAAAGTTGTGGCGAGGATAGTGAGTCGCTGCCTGCAAAGACACAACT [CGAGG] — lower, 0.422 ± 0.029
- GAGACCGCAACTGAAAAGTTGTGGGGAGGATAGTGAGTCGCTGCCTGCAAAGACACAACT [GGAGG] — lower, 0.371 ± 0.084
- GAGACCGCAACTGAAAAGTTGTGGTGAGGATAGTGAGTCGCTGCCTGCAAAGACACAACT [TGAGG] — lower, 0.319 ± 0.074
- GAGACCGCAACTGAAAAGTTGTGGAGAGGATAGTGAGTCGCTGCCTGCAAAGACACAACT [AGAGG] — lower, 0.288 ± 0.045
- GAGACCGCAACTGAAAAGTTGTGGAGAGTATAGTGAGTCGCTGCCTGCAAAGACACAACT [AGAGT] — lower, 0.253 ± 0.024
- GAGACCGCAACTGAAAAGTTGTGGTGAGTATAGTGAGTCGCTGCCTGCAAAGACACAACT [TGAGT] — lower, 0.221 ± 0.024
- GAGACCGCAACTGAAAAGTTGTGGGGAGTATAGTGAGTCGCTGCCTGCAAAGACACAACT [GGAGT] — lower, 0.165 ± 0.0095
- GAGACCGCAACTGAAAAGTTGTGGCGATAATAGTGAGTCGCTGCCTGCAAAGACACAACT [CGATA] — within error, 1.05 ± 0.21
- GAGACCGCAACTGAAAAGTTGTGGAGATAATAGTGAGTCGCTGCCTGCAAAGACACAACT [AGATA] — lower, 0.533 ± 0.16
- GAGACCGCAACTGAAAAGTTGTGGTGATAATAGTGAGTCGCTGCCTGCAAAGACACAACT [TGATA] — lower, 0.4829 ± 0.0015
- GAGACCGCAACTGAAAAGTTGTGGGGATAATAGTGAGTCGCTGCCTGCAAAGACACAACT [GGATA] — lower, 0.432 ± 0.027
- GAGACCGCAACTGAAAAGTTGTGGCGATCATAGTGAGTCGCTGCCTGCAAAGACACAACT [CGATC] — lower, 0.294 ± 0.018
- GAGACCGCAACTGAAAAGTTGTGGAGATCATAGTGAGTCGCTGCCTGCAAAGACACAACT [AGATC] — lower, 0.204 ± 0.0068
- GAGACCGCAACTGAAAAGTTGTGGGGATCATAGTGAGTCGCTGCCTGCAAAGACACAACT [GGATC] — lower, 0.188 ± 0.03
- GAGACCGCAACTGAAAAGTTGTGGTGATCATAGTGAGTCGCTGCCTGCAAAGACACAACT [TGATC] — lower, 0.143 ± 0.062
- GAGACCGCAACTGAAAAGTTGTGGGGATGATAGTGAGTCGCTGCCTGCAAAGACACAACT [GGATG] — within error, 0.732 ± 0.14
- GAGACCGCAACTGAAAAGTTGTGGTGATGATAGTGAGTCGCTGCCTGCAAAGACACAACT [TGATG] — lower, 0.708 ± 0.08
- GAGACCGCAACTGAAAAGTTGTGGAGATGATAGTGAGTCGCTGCCTGCAAAGACACAACT [AGATG] — lower, 0.602 ± 0.065
- GAGACCGCAACTGAAAAGTTGTGGCGATGATAGTGAGTCGCTGCCTGCAAAGACACAACT [CGATG] — within error, 1.3 ± 0.22
- GAGACCGCAACTGAAAAGTTGTGGCGATTATAGTGAGTCGCTGCCTGCAAAGACACAACT [CGATT] — higher, 4.38 ± 0.59
- GAGACCGCAACTGAAAAGTTGTGGTGATTATAGTGAGTCGCTGCCTGCAAAGACACAACT [TGATT] — higher, 2.4 ± 0.61
- GAGACCGCAACTGAAAAGTTGTGGAGATTATAGTGAGTCGCTGCCTGCAAAGACACAACT [AGATT] — within error, 1.66 ± 0.48
- GAGACCGCAACTGAAAAGTTGTGGGGATTATAGTGAGTCGCTGCCTGCAAAGACACAACT [GGATT] — within error, 1.31 ± 0.31
- GAGACCGCAACTGAAAAGTTGTGGGGCAAATAGTGAGTCGCTGCCTGCAAAGACACAACT [GGCAA] — lower, 0.423 ± 0.11
- GAGACCGCAACTGAAAAGTTGTGGAGCAAATAGTGAGTCGCTGCCTGCAAAGACACAACT [AGCAA] — lower, 0.342 ± 0.056
- GAGACCGCAACTGAAAAGTTGTGGCGCAAATAGTGAGTCGCTGCCTGCAAAGACACAACT [CGCAA] — lower, 0.29 ± 0.03
- GAGACCGCAACTGAAAAGTTGTGGTGCAAATAGTGAGTCGCTGCCTGCAAAGACACAACT [TGCAA] — lower, 0.289 ± 0.065
- GAGACCGCAACTGAAAAGTTGTGGGGCACATAGTGAGTCGCTGCCTGCAAAGACACAACT [GGCAC] — lower, 0.395 ± 0.016
